Measured values as given in article PMC10506094.

Key:
[1] = target: Loa22 of L. borgpetersenii sv. Ballum str. M2, endogenous (Leptospira borgpetersenii sv. Ballum str. M2 (endogenous in cultivated cells)); test: SDS-PAGE and immunoblot of whole cell lysates; Leptospira cells in SDS-PAGE buffer (4% SDS, 2% β-ME), sonicated and heated (10 min, 99 °C); blot screened with anti-Loa22_(27-197) antiserum; oligomer read from the size of the bands
[2] = target: Loa22 of L. interrogans sv. Canicola str. Kito, endogenous (Leptospira interrogans sv. Canicola str. Kito (endogenous in cultivated cells)); test: as above
[3] = target: Loa22 of L. interrogans sv. Copenhageni str. Fiocruz L1-130, endogenous (Leptospira interrogans sv. Copenhageni str. Fiocruz L1-130 (endogenous in cultivated cells)); test: as above
[4] = target: Loa22 of L. interrogans sv. Pomona str. LC82-25, endogenous (Leptospira interrogans sv. Pomona str. LC82-25 (endogenous in cultivated cells)); test: as above
[5] = target: Loa22 of L. kirschneri sv. Grippotyphosa str. RM52, endogenous (Leptospira kirschneri sv. Grippotyphosa str. RM52 (endogenous in cultivated cells)); test: as above
[6] = target: Loa22 of L. noguchii sv. Autumnalis str. Bonito, endogenous (Leptospira noguchii sv. Autumnalis str. Bonito (endogenous in cultivated cells)); test: as above
[7] = SEC; TSKgel G4000SWXL column, PBS as mobile phase, 1.0 mL/min; 50 µg recombinant protein injected (25 µL); MW from a standard curve of globular proteins; fractions checked by SDS-PAGE and immunoblot with anti-Loa22_(27-197) antiserum
[8] = target: recombinant Loa22_(27-197) (Leptospira OmpA-like 22 kDa protein) of L. interrogans sv. Copenhageni str. Fiocruz L1-130 (Leptospira interrogans sv. Copenhageni str. Fiocruz L1-130); test: as above

Work on “Loa22 of L. borgpetersenii sv. Ballum str. M2, endogenous (natural protein)” yielded a stoichiometry N [1] of 3.

“Loa22 of L. interrogans sv. Canicola str. Kito, endogenous (natural protein)” showed a stoichiometry N [2] of 3.

Work on “Loa22 of L. interrogans sv. Copenhageni str. Fiocruz L1-130, endogenous (natural protein)” yielded a stoichiometry N [3] of 3.

With “Loa22 of L. interrogans sv. Pomona str. LC82-25, endogenous (natural protein)” the stoichiometry N [4] was 3.

For “Loa22 of L. kirschneri sv. Grippotyphosa str. RM52, endogenous (natural protein)”, the stoichiometry N [5] was 3.

For “Loa22 of L. noguchii sv. Autumnalis str. Bonito, endogenous (natural protein)”, the stoichiometry N [6] was 3.

For “recombinant Loa22_(27-197) (Leptospira OmpA-like 22 kDa protein) of L. interrogans sv. Copenhageni str. Fiocruz L1-130”, the “percent of the protein as monomer (area under the SEC peaks)” value [7] was “a majority of the recombinant protein exists as a monomer (89% of the total)”.

With “recombinant Loa22_(27-197) (Leptospira OmpA-like 22 kDa protein) of L. interrogans sv. Copenhageni str. Fiocruz L1-130 (domain or fragment)” the stoichiometry N [8] was 3.
